Results published in patent publication US20240270821A1, “GIP/GLP1/GCG TRI-RECEPTOR AGONISTS AND USES THEREOF” (priority 2023, published 2024).
Starred links: 1 amine or outer side, 2 acyl side, 3 side chain; linkers in the order of their positions; H or OH if unused. Non-standard residues stand in square brackets, D forms with d. Groups on a side chain read outwards from the residue. No end group written: not given here. *: point of attachment. C18 diacid = O=C(O)CCCCCCCCCCCCCCCCC(=O)*; γGlu = O=C(O)[C@H](CCC(=O)[*:2])N[*:1]; 4Pal = N[C@@H](Cc1ccncc1)C(=O)O; αMeL = CC(C)C[C@](C)(N)C(=O)O; Dab = NCC[C@H](N)C(=O)O; AEEA = NCCOCCOCC(=O)O; Aib = CC(C)(N)C(=O)O

Tests used:
Test in all cases: cell-based or functional assay
[1] = target: human GLP-1R (SNAP-GLP-1R expressed in HEK293 cells) (human) (UniProt P43220)
[2] = target: human glucagon receptor (human) (UniProt P47871)
[3] = target: T1, human GIP receptor (human) (UniProt P48546)
T1 sequence (looked up): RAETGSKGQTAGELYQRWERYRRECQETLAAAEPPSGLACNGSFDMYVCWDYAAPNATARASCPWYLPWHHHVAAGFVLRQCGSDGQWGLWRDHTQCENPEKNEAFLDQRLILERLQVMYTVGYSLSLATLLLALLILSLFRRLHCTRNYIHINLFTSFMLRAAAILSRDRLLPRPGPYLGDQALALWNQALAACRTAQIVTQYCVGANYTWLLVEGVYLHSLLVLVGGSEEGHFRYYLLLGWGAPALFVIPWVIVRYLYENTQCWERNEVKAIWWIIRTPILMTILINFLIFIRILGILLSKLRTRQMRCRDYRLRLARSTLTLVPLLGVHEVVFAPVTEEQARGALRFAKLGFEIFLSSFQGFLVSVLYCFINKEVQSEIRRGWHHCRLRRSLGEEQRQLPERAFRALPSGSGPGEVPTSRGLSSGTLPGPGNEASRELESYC

[4] = target: hGLP-1R (Homo sapiens, UniProt P43220)
Sequence of hGLP-1R (P43220 24-463): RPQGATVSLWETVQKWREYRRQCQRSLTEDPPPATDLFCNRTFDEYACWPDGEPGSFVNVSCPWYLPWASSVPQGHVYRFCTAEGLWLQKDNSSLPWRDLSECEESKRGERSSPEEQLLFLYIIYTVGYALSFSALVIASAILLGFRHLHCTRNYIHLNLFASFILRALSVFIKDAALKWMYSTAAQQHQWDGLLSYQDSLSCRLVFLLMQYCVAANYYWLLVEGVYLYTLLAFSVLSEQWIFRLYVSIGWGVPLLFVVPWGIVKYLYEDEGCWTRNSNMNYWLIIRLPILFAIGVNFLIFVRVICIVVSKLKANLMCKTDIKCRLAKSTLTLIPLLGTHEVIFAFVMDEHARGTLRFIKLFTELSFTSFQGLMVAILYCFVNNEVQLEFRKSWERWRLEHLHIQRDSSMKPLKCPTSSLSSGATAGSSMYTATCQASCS

Sequence of human GLP-1R (SNAP-GLP-1R expressed in HEK293 cells) (human) (P43220 24-463): as above
Sequence of human glucagon receptor (human) (P47871 26-477): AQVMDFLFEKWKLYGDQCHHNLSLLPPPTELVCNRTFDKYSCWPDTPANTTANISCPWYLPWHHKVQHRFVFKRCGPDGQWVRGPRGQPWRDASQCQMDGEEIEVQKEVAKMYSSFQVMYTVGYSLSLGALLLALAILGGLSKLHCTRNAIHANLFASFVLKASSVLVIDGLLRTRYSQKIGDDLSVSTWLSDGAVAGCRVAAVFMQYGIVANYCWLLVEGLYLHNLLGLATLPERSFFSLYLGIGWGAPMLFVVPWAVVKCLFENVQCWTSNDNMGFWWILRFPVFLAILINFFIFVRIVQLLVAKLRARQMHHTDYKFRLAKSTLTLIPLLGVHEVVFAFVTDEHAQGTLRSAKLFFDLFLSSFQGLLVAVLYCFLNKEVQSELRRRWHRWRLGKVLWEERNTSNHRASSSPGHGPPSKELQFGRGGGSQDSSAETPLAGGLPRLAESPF

Row | Binder | GLP1R Internalization EC50 [1] [nM] | Internalization % TOP [1] [%] | Relative cAMP EC50, nM (0.1% casein) [2] [nM] | cAMP Rel EC50, nM (1% HSA) [2] [nM] | Relative cAMP EC50, nM (0.1% casein) [3] [nM] | cAMP Rel EC50, nM (1% HSA) [3] [nM] | Relative cAMP EC50, nM (0.1% casein) [4] [nM] | cAMP Rel EC50, nM (1% HSA) [4] [nM] | Relative cAMP EC50 [2] [nM] | Relative cAMP EC50 [3] [nM] | Relative cAMP EC50 [4] [nM]
1 | YXQGTFTSDFSXXLDKKAQXAFIEYLLEXGPSSGAPPPSGT (synthetic construct; SITE 2: note = 2-Aminoisobutyric Acid; SITE 12: note = L-ornithine; SITE 13: note = alpha-methyl-leucine; SITE 17: note = Lysine is chemically modified through conjugation of the epsilon-amino group of the Lysine side chain with (2-[2-(2-Amino-ethoxy)-ethoxy]-acetyl)2-(gamma-Glu)) [Example 165] | 57.5 | 44.5 | 4.47 | 1250 | 0.0956 | 18.6 | 6.52 | 808 | – | – | –
2 | YXQGTFTSDFSXXLDKKAQXAFIEYLLEXGESSGAPPPSGS (synthetic construct; SITE 2: note = 2-Aminoisobutyric Acid; SITE 12: note = L-ornithine; SITE 13: note = alpha-methyl-leucine; SITE 17: note = Lysine is chemically modified through conjugation of the epsilon-amino group of the Lysine side chain with (2-[2-(2-Amino-ethoxy)-ethoxy]-acetyl)2-(gamma-Glu)) [Example 179] | 63.4 | 48.4 | 4.82 | 1440 | 0.104 | 21.3 | 5.81 | 904 | – | – | –
3 | YXQGTFTSDFSXXLDKKAQXAFIEWLLEGGTSSGAPPPSGE (synthetic construct; SITE 2: note = 2-Aminoisobutyric Acid; SITE 12: note = L-ornithine; SITE 13: note = alpha-methyl-leucine; SITE 17: note = Lysine is chemically modified through conjugation of the epsilon-amino group of the Lysine side chain with (2-[2-(2-Amino-ethoxy)-ethoxy]-acetyl)-(gamma-Glu)) [Example 175] | 116 | 49.2 | 4.92 | 579 | 0.218 | 29.6 | 4 | 386 | – | – | –
4 | YXQGTFTSDFSXXLDKKAQXAFIEYLLEXGHSSGAPPPSGE (synthetic construct; SITE 2: note = 2-Aminoisobutyric Acid; SITE 12: note = L-ornithine; SITE 13: note = alpha-methyl-leucine; SITE 17: note = Lysine is chemically modified through conjugation of the epsilon-amino group of the Lysine side chain with (2-[2-(2-Amino-ethoxy)-ethoxy]-acetyl)2-(gamma-Glu)) [Example 186] | 124 | 41.1 | 4.67 | 1280 | 0.107 | 18 | 5.26 | 690 | – | – | –
5 | YXQGTFTSDFSXXLDKKAQXAFIEWLLEGGHSSGAPPPSGE (synthetic construct; SITE 2: note = 2-Aminoisobutyric Acid; SITE 12: note = L-ornithine; SITE 13: note = alpha-methyl-leucine; SITE 17: note = Lysine is chemically modified through conjugation of the epsilon-amino group of the Lysine side chain with (2-[2-(2-Amino-ethoxy)-ethoxy]-acetyl)2-(gamma-Glu)) [Example 169] | 178 | 49.4 | 11.7 | 439 | 0.209 | 21.5 | 6.17 | 216 | – | – | –
6 | YXQGTFTSDFSXXLDKKAQXAFIEWLLEGGTSSGAPPPSGS (synthetic construct; SITE 2: note = 2-Aminoisobutyric Acid; SITE 12: note = L-ornithine; SITE 13: note = alpha-methyl-leucine; SITE 17: note = Lysine is chemically modified through conjugation of the epsilon-amino group of the Lysine side chain with (2-[2-(2-Amino-ethoxy)-ethoxy]-acetyl)-(gamma-Glu)) [Example 176] | 103 | 48 | 4.1 | 461 | 0.212 | 40.7 | 2.92 | 389 | – | – | –
7 | YXQGTFTSDFSXXLDKKAQXAFIEYLLEXGPSSGEPPPSGT (synthetic construct; SITE 2: note = 2-Aminoisobutyric Acid; SITE 12: note = L-ornithine; SITE 13: note = alpha-methyl-leucine; SITE 17: note = Lysine is chemically modified through conjugation of the epsilon-amino group of the Lysine side chain with (2-[2-(2-Amino-ethoxy)-ethoxy]-acetyl)2-(gamma-Glu)) [Example 167] | 75.9 | 44.7 | 5.05 | 938 | 0.101 | 24.7 | 6.19 | 1300 | – | – | –
8 | YXQGTFTSDFSXXLDKKAQXAFIEWLLEGGTSSGAPPPSGT (synthetic construct; SITE 2: note = 2-Aminoisobutyric Acid; SITE 12: note = L-ornithine; SITE 13: note = alpha-methyl-leucine; SITE 17: note = Lysine is chemically modified through conjugation of the epsilon-amino group of the Lysine side chain with (2-[2-(2-Amino-ethoxy)-ethoxy]-acetyl)-(gamma-Glu)) [Example 177] | 79.4 | 44 | 4.22 | 758 | 0.213 | 34.8 | 2.97 | 483 | – | – | –
9 | YXQGTFTSDFSXXLDKKAQXAFIEWLLEGGSSSGAPPPSGT (synthetic construct; SITE 2: note = 2-Aminoisobutyric Acid; SITE 12: note = L-ornithine; SITE 13: note = alpha-methyl-leucine; SITE 17: note = Lysine is chemically modified through conjugation of the epsilon-amino group of the Lysine side chain with (2-[2-(2-Amino-ethoxy)-ethoxy]-acetyl)-(gamma-Glu)) [Example 174] | 123 | 52.8 | 4.24 | 307 | 0.198 | 20.8 | 2.33 | 208 | – | – | –
10 | YXQGTFTSDFSXXLDKKAQXAFIEWLLEGGHSSGAPPPSGT (synthetic construct; SITE 2: note = 2-Aminoisobutyric Acid; SITE 12: note = L-ornithine; SITE 13: note = alpha-methyl-leucine; SITE 17: note = Lysine is chemically modified through conjugation of the epsilon-amino group of the Lysine side chain with (2-[2-(2-Amino-ethoxy)-ethoxy]-acetyl)-(gamma-Glu)) [Example 171] | 61.4 | 36.1 | 3.86 | 502 | 0.2 | 27.1 | 2.89 | 287 | – | – | –
11 | YXQGTFTSDFSXXLDKKAQXAFIEYLLEXGXSSGAPPPSGE (synthetic construct; SITE 2: note = 2-Aminoisobutyric Acid; SITE 12: note = L-ornithine; SITE 13: note = alpha-methyl-leucine; SITE 17: note = Lysine is chemically modified through conjugation of the epsilon-amino group of the Lysine side chain with (2-[2-(2-Amino-ethoxy)-ethoxy]-acetyl)2-(gamma-Glu)) [Example 189] | 103 | 45.8 | 6.28 | 853 | 0.0695 | 22.2 | 4.46 | 423 | – | – | –
12 | YXQGTFTSDFSXXLDKKAQXAFIEYLLEXGPSSGAPPPSGT (acylated lipid side chain; synthetic construct; SITE 2: note = 2-Aminoisobutyric Acid; SITE 12: note = L-ornithine; SITE 13: note = alpha-methyl-leucine; SITE 17: note = Lysine is chemically modified through conjugation of the epsilon-amino group of the Lysine side chain with (2-[2-(2-Amino-ethoxy)-ethoxy]-acetyl)-(gamma-Glu)) [Example 200] | 86.1 | 39.2 | – | 360 | – | 13.7 | – | 395 | 2.83 | 0.0739 | 3.19
13 | YXQGTFTSDFSXXLDKKAQXAFIEYLLEXGHSSGAPPPSGS (synthetic construct; SITE 2: note = 2-Aminoisobutyric Acid; SITE 12: note = L-ornithine; SITE 13: note = alpha-methyl-leucine; SITE 17: note = Lysine is chemically modified through conjugation of the epsilon-amino group of the Lysine side chain with (2-[2-(2-Amino-ethoxy)-ethoxy]-acetyl)2-(gamma-Glu)) [Example 181] | 116 | 47.5 | 6.25 | 772 | 0.133 | 12.7 | 4.39 | 365 | – | – | –
14 | YXQGTFTSDXSRXLDKKAQXAFIEYLIEXGESSGAPPPSGS (synthetic construct; SITE 2: note = 2-Aminoisobutyric Acid; SITE 10: note = 3-(4-Pyridyl)-L-alanine; SITE 13: note = alpha-methyl-leucine; SITE 17: note = Lysine is chemically modified through conjugation of the epsilon-amino group of the Lysine side chain with (2-[2-(2-Amino-ethoxy)-ethoxy]-acetyl)) [Example 187] | 17.2 | 57 | 14.8 | 2970 | 0.111 | 15.6 | 1.11 | 178 | – | – | –
15 | YXQGTFTSDFSXXLDKKAQXAFIEYLLEXGXSSGAPPPSGS (synthetic construct; SITE 2: note = 2-Aminoisobutyric Acid; SITE 12: note = L-ornithine; SITE 13: note = alpha-methyl-leucine; SITE 17: note = Lysine is chemically modified through conjugation of the epsilon-amino group of the Lysine side chain with (2-[2-(2-Amino-ethoxy)-ethoxy]-acetyl)2-(gamma-Glu)) [Example 183] | 100 | 45.4 | 3.83 | 504 | 0.0759 | 13.7 | 5.03 | 295 | – | – | –
16 | YXQGTFTSDFSXXLDKKAQXAFIEWLLEGGSSSGAPPPSGS (synthetic construct; SITE 2: note = 2-Aminoisobutyric Acid; SITE 12: note = L-ornithine; SITE 13: note = alpha-methyl-leucine; SITE 17: note = Lysine is chemically modified through conjugation of the epsilon-amino group of the Lysine side chain with (2-[2-(2-Amino-ethoxy)-ethoxy]-acetyl)-(gamma-Glu)) [Example 173] | 97.1 | 38.6 | 3.6 | 745 | 0.168 | 49.9 | 2.32 | 293 | – | – | –
17 | YXQGTFTSDFSXXLDKKAQXAFIEYLLEXGPSSGEPPPSGS (synthetic construct; SITE 2: note = 2-Aminoisobutyric Acid; SITE 12: note = L-ornithine; SITE 13: note = alpha-methyl-leucine; SITE 17: note = Lysine is chemically modified through conjugation of the epsilon-amino group of the Lysine side chain with (2-[2-(2-Amino-ethoxy)-ethoxy]-acetyl)2-(gamma-Glu)) [Example 166] | 74.6 | 44.2 | 3.82 | 724 | 0.118 | 21 | 6.96 | 1500 | – | – | –
18 | YXQGTFTSDFSXXLDKKAQXAFIEWLLEGGPSSGAPPPSGS (synthetic construct; SITE 2: note = 2-Aminoisobutyric Acid; SITE 12: note = L-ornithine; SITE 13: note = alpha-methyl-leucine; SITE 17: note = Lysine is chemically modified through conjugation of the epsilon-amino group of the Lysine side chain with (2-[2-(2-Amino-ethoxy)-ethoxy]-acetyl)-(gamma-Glu)) [Example 168] | 74.8 | 38.7 | 5.54 | 1270 | 0.233 | 31.9 | 2.44 | 281 | – | – | –
19 | YXQGTFTSDFSXXLDKKAQXAFIEWLLEGGSSSGAPPPSGE (synthetic construct; SITE 2: note = 2-Aminoisobutyric Acid; SITE 12: note = L-ornithine; SITE 13: note = alpha-methyl-leucine; SITE 17: note = Lysine is chemically modified through conjugation of the epsilon-amino group of the Lysine side chain with (2-[2-(2-Amino-ethoxy)-ethoxy]-acetyl)-(gamma-Glu)) [Example 172] | 121 | 41.4 | 3.38 | 605 | 0.174 | 29.3 | 3.5 | 457 | – | – | –
20 | YXQGTFTSDFSXXLDKKAQXAFIEYLLEXGPSSGAPPPSGS (synthetic construct; SITE 2: note = 2-Aminoisobutyric Acid; SITE 12: note = L-ornithine; SITE 13: note = alpha-methyl-leucine; SITE 17: note = Lysine is chemically modified through conjugation of the epsilon-amino group of the Lysine side chain with (2-[2-(2-Amino-ethoxy)-ethoxy]-acetyl)-(gamma-Glu)) [Example 192] | 115 | 48.7 | 4.18 | 560 | 0.142 | 9.86 | 9.77 | 719 | – | – | –
21 | Y[Aib]QGTFTSD[4Pal]S[Dab][αMeL]LDKK([AEEA-γGlu-C18 diacid])AQ[Aib]AFIEYLIE[Aib]GESSGAPPPSGS-NH2 [Example 188] | 44.7 | 40.2 | 10.8 | 2920 | 0.193 | 43.8 | 3.43 | 436 | – | – | –
